Experimental data as given in the DeepSol protein solubility set.

assay: soluble on expression in E. coli; label from the status in PepcDB or PDB records

Row | Sequence | soluble on expression in E. coli
1 | MIYIGFYPKFNISGFSIGINTGVRFDVSSKLHYETSSASENINNEVKPRTYIRGTFDYSVFFKDNMAINVGLYIGYDWGFAWSDTYANADVVKNESFGNLDLGIQVGYRFGPKF | not soluble
2 | MSGSSEIMSMHDQIVRFSASSSAPEDTTTNSLMAEKEASLVVRLEQELTQAQICNHRLNQQLKVLANSSDKAIKIELANAKVRF | not soluble
3 | MLFKRYGDPISLLRTYRLCDLMEFIFYVQEVEQEEKIYNQWLHTQMTQSLKEFKDQQKYRPLRKNKAKSTTKEEQQKALDFASQFVKPRKEGEVS | not soluble
4 | MTNDVEMKSETEELPPFPTVHILQVVKDAQQQHGLRHGDYARYRKYCAAKLERMRKALKFTNSHNCQKKRKAKFVKKWLSVESVQNVQFLNFGIFESERRYAEAMIDKITLEDNPEKSRKKFSMINSLRKAVLHATNLEKIVQESERFDAPTKLEAQAYAAWMRGMCSFESRNWQKASESLKLAKTVYEKLAEATNNTTLSSIFKGRCREIQPQLRLCEFNIAESPGAVGTMTELMELRMQMGEGGDSSVDKLISEMRASATSAEVVTIEWGGAKSTVDDEKAKQVVQEWKQTEVELAQCQTPKEKMALFEKATADTRDAIDRISDIIRRKSSENADTTVLQSIKAYLEFLKMNGTASRYLAIIDNTKSEKKSKPQDLLRLYDSVIEIYKEVAEIPGADHDKNLIQAFEVKVEYYRAFRCFYMASSYSALHKYSEAAALFDRTVSRVQDAEGKLKKLKSSSFITNETQSSLNELRSEVESAKVTVRAARLASAAGDVKTDSELAKIIDKRPLLETVNEWRQWDVRNSLKDKKTIPVASLPPAFIPMPNKPIFFDLANFHLTMPNVDDRLEKLQKDRDATPKKAAKGSSAAAASSKTSNQEEEEQQGLTGMLSGWKKSFWGNK | not soluble
5 | MDAKVYVGGLPSDATSQELEEIFDRFGRIRKVWVARRPPGFAFVEYDDVRDAEDAVRALDGSRICGVRARVELSTGQRRGGGGRGGGFGGRGGGGRDRSPYRGDRGRSRSRSRDRGRDRSRDRSRDRSRDRSRDRSRERSRERERTRSRSRSPQERDRSHSKSRSRSRSRSRSRSASPH | soluble
6 | MLLRKFCGIEKTDNGYLIHGDAGDIKLVFMTDDIIRIRVSFDRKFKEASYALVTTAWEDELDELFQEERTRIQAKDVVCEEKEDALIFHTTALKLVMKKQPIQFLLYDVEGKLIYNDLKERAFDQDQLGRVTHYSEIHADTDHFYGFGEKTGHLDKKGRHLRMSPKDAIGADPEFGEPLYKHVPFYIRVNEENLHALGLFYNNSYDAVFDMGNERSGYWDSYCYYQADGGDIDLFLINGPKMASVLERYTYLTGRQAMPTKQSLGYTASTMYYAELEQNCDEEIYKVIQKHFDEKIYIDNFWLASGYSSGEEDNLRYVFNWNKKRFPDPEGFFEKMEQEMGINVIPNMKPGILKNHPYRKVFEQYDAFVKTPDKAEDYVGRWWGGEGRFVDFTKKAGRDAWKELLKKNLMAKGMRTVWNDNCEYDGVEDRNAYCDHEGMGGTMAELKIIQSNMMAYTGKEALKEVYPKARPYIINRAGYAGIQRYAQVWAGDNLTDWRTVKFNIATIMGMGLSGMSNAGCDIGGFAGPAPGGELLLRWIQNGIFQPRFCINSANNDNTVTQPWMYEENLPYVQAAYAQRYRMIPYLYSVMRESHENGMPVMRPLFLEFPEDVKCYRDQNLTFMFGPSVLVANVVEKGAITRTIYLPKGTTWYDMNDNFKAYEGGQTIELPVDLSSIPMFLRGSAVYMTTEDIHHIAKDTMKALDLFVSCEEDAEFTYYDDDGWSKEYEEGNFAETKISVKAGDRKQIHFHKNGFYQESWENLNLNVVSKEKGAYWVSVDGEKIPRFLIRDAFDEAETGWYYDMSDRIVKVKCKKPQKDDFEIVVSCEKFDLIGMENEI | not soluble
7 | MSLSVSDELQLFAQEIQRFLSPNTLRNLARDVGFVQRTSKYQAKDLVALCVWMNQNIATTSLTQLSSCLEASTEVLISPEGLNQRFNKAAVQFLQHILAELLSRKLTSSIPISSPYTSVFKRIRILDSTAFQLPDVFSSVYPGAGGCSHTAGIKIQLEYDLLSGQFLHIHTGPGKQHDRTYGSLCAPTVTANDLCIRDLGYFHLKDLQYIQDKEAYYISRIKSNTRMYQKNPNPDYFQDGRIKKGTEYIQIDIETLMNSLQPGQTCEVADAYVGMNDKVPARVIVHRLTKQQQQKRLQDQAVREKKKGMKYSPRSKRLSGINVYMTNTPTDIVPMGQVHDWYSLRWQIEILFKTWKSFFQIHHCKKIKAERLECHLYGQLIAILLCSSIMFQMRQLLLMKKKRELSEYKAIYMIKDYFLLLFQTIQKNTQELSKVLLRLFNLLQQNGRKSHRYEKKTVFDILGVVYNSMSDNQAEGHHHHHH | not soluble
8 | MGSEQNDSTSFTQSQASEPKLCVKGCGFFGSPSNMDLCSKCYRGICAEEAQTAVAKAAVEKSFKPSPPRSLFIAEPPAVVVEPKPEKAAVVVVSAEPSSSAVPEANEPSRPARTNRCLCCNKKVGIMGFKCKCGSTFCGEHRYPETHDCSFDFKEVGRGEIAKANPVVKADKIQRF | soluble
9 | VDLSDEEKDSIYMFASLVEKMKSRPLNEILEDSKLQNLAQRVFASKARLNYALNDKAQKYNTLIEMNGKISEIMNIYDRLLEQQLQSINLS | soluble
10 | LSKGTRDRKNIYVSPEEMARQQRFIDEIKELNYRKEVKTGKKKLYCLNTFGCQMNEHDSEKLAGMLAEMGYAETDNVNESDLVIYNTCCVRENAELKVYGHLGMLKPLKNQKPDLVIAVCGCMMQQPEVVEHIKKTYSHVDLIFGTHNLYKFPELLYSAMDSQTTVVDVWDCDGQIAENVAIERKDGVKAWVTVMYGCNNFCTYCIVPYVRGRERSRSMDDILEEVRMLGRQGFKEITLLGQNVNSYGKDIGDGTSFAELIREVNKIPGIERIRFTTSHPKDLSDDLIYAMRDCEKVCEHLHLPFQAGSTRILKLMNRKYTKEDYINLVAKIKENIPDIALTTDIIVGFPGETEEDFSDTLDILEKVRFDNAYTFLYSKRTGTPAAKMEDQVPEEVKKERFQRLLETQNRISKEINDTFLGKVVEVLVEGVSKTNDKIFTGRTRGNKVVNFEADASLIGKLVNVRINTVKTWSLEGSIVR | soluble
11 | MTMTPVSDPIPIGNQEDKENIEDAENTMNISPACDRILVDHQYTRDVVITGKCSSLTYKKA | not soluble
12 | MSLEVEVYRDPLSGFKDNKKSAPVKLNDEQQFALNQITAAIDKRKAETFLLEGITGSGKTEVYLHAISKALEQGRNALMLVPEISLTPQMVRQVKSRFGQAVAVLHSALSEGEKYDEWRRIRRGETRVVVGARSAVFAPLDNIGLIVIDEEHESSYKQETDPRYNARDVAIWRSKYHHCPLVLGSATPSLGSRARAQKNVYKLLRLTKRANNKKLPKVNLIDLKHVQFAGGQFDLSVNLVDAIKKRLDNKEQVILMLNRRGFANFMLCRECGFVLKCPNCDVSLNLHKDTNSMQCHYCGHTERVPSRCPNCQSSKIRFLGTGTQKVQEELEELLPGARILRMDVDTTRKKGSYKRILDSFGNHEADILLGTQMIAKGLDFPNVTLVGVINADTGLWLSDYNASEKTFELLTQVAGRAGRANKEGEVLIQTYNPEHYAIQLAQTQNYERFYGYEMNVRHAGNYPPYFFTVLISIAAKKEQNAAREAFRIKRYLSQHLHEEMIILGPTPSAISRVKNQYYYQILVKYKKEPNIKELLHHIQDSAQEAKKYGLNVFIDNEPEKIMEGHHHHHH | not soluble
13 | MGSDKIHHHHHHMRVKYPSIPHLPWSPGLQNDDRRITSLSGFIGKEVVVTEKLDGENTSLYRDDLHARSLDMRPHPSRTWVKAERGRVAHDIPLGWRFCGENVYAVHSLKYDDLDGYFYLFSVWDDLNVSRPWDEVRGWAERLSLPTPRELYRGPWDEAALQALDPDPERMEGYVVRVTAAIPYADFGRKVAKWVRRGHVQTDQHWLSQPVEPNGLKRQEQS | not soluble
14 | MTSTRHHRGARRALRHLTTTTAHARRAFSPADLRQLEAAVREGERRHRGEVRIVIEASLPVRDAWAGVTPRQRARTLFGLLEVWNTHEHVGVLLYLNLADHAVEILADRGIAARVEPHAWRAICETITHGFAQGVAIGPVLEALGQIHAVLAAHFPSDGAPRANELADKPLVLLEHHHHHH | soluble
15 | MTTTTTVRQCRVTRIGSTELPPRVENAIQFLDDQCYEKLGGTVVMKWFGNRVPPEDHRQLSSFCHVVNLTKYDDDPKSRYHKDDIECACGTSSNLFFLKKFNEAVEKYPCDDDETITKAPTTEPSDDLWCWQLRSRSFASSPPPPRMKNAIQLLDDKCYAKLGGTTVMKWFGNVVTPEGKVCFVINLTDSKMKLYKKEIVCACGRQSYVFFLEGLILMREKYSCNDKTTTKSTRTTPSTTTAKQCYVRRTGSSVSPPRETDAIPMLDDQCYEKMGGTSVMDRFGNREPPKSVYEYSEFCLLVDVTLNGPAMETYQSDIECVCGISSLEFFLEKFEEAIKKYPCDNDGATEAATTKPTTTTVTTTTVPPKTDPPRTEPPKTEPPTTEPPKIEPPRTEPPKTEPPPTEPPKTEPPKTTPPKTEPPTTEPPNIPYCWQQQSRLFAPSPPPPRVNNTMPLIEDKCYAKLGDTLVMAWFGNRAPPKNFTEVLDFCTVAALTYNNESAVFSVFKKDIQCNCDKLSFSRFLKKLSEAMEKYQCNNVWTRTEAPETVTTRTEPPRTEPPRTIPPRTEAPRTEPPRTEPPKTEAPRTVRPKTEAPMTVPPRTEPPMTEAPRTEVPMTEPPKTEPPRTAPPRTEVSMTLPPETVPPNTEAPRTEVPMTVPPRTEPPKTEAPRTVPPKTEAPMTEVPMTGPSRTEVPMTEPPKTEQPRTAPPRTEVSMTLPPETVPPKTEAPRTEVPMTGPSRTEVPMTVTPETGLSSTVTSKTEPPKTTTEKRITPRTEVPKTVPPRTGPPMTVPPGTEAPTTEAPMTITPRTEQLRTEQLRTDQSKTVTPKTKITVWPTDYRGPI | not soluble
16 | MGSDKIHHHHHHMTLKDIAEMAGVSTMTVSNVINGKTSRVSQKTRDKINSIIEEYNYVPNMNARSLSNNSSHIIGVVTFLEEKEYASGYNYFENPYVSTMIGTIETELHKNGYFTMLQSVSRSSDILSLVKNWNVDGMILVFPTSAQNLEKLMDAANCPIATFDSNYSHPNLINVISDDEKGLYLSTKYMINHGHTEIAFVADYEGNIVLTKRFNGYKKALEDSHIPFRPEYIFSYPPSYEGGIEAGRAIAGSKSPITAVVTTADICAIGIMEGARLGGYRVPIDLSVIGYDNLNLCQYTVPKLTSVSQNVPKKARLATELLLKKIHDNESDSNLGEIIDVEIVDRQSVISLY | not soluble
17 | MAHHHHHHMTSFMLATNCPDELCCALCLDSWKKPVELQPCGHIFCQECIGAPRVCPVCRAPVNCTKQPHRSLVNLAQNLPVRCSSCGWTGRREGSDSHTCPTASWSGSTEAPSTTNAQSTCQGSRQQSVADTPWLRYGLTQEEYDSIVALFVFFDSDESGHLCREEMGRLARWLNFARTDDDIDRMFREMDEDGTGTLCLEEFLSWLSKNRPDPSVLYGMSQQQYNCVMMQFRLYDRDRDGFLDADDFSKLAVRIGDVPDIESGMQLFRSITTGHCEKIGLHQFLLYCVGRMFR | not soluble
